# Results from PMC3488082 (The Journal of Biological Chemistry, 2012).
# B1: Human aldehyde dehydrogenase-2 (ALDH2), wild-type (enzyme)
# chain: SAAATQAVPAPNQQPEVFCNQIFINNEWHDAVSRKTFPTVNPSTGEVICQVAEGDKEDVDKAVKAARAAFQLGSPWRRMDASHRGRLLNRLADLIERDRTYLAALETLDNGKPYVISYLVDLDMVLKCLRYYAGWADKYHGKTIPIDGDFFSYTRHEPVGVCGQIIPWNFPLLMQAWKLGPALATGNVVVMKVAEQTPLTALYVANLIKEAGFPPGVVNIVPGFGPTAGAAIASHEDVDKVAFTGSTEIGRVIQVAAGSSNLKRVTLELGGKSPNIIMSDADMDWAVEQAHFALFFNQGQCCCAGSRTFVQEDIYDEFVERSVARAKSRVVGNPFDSKTEQGPQVDETQFKKILGYINTGKQEGAKLLCGGGIAADRGYFIQPTVFGDVQDGMTIAKEEIFGPVMQILKFKTIEEVVGRANNSTYGLAAAVFTKDLDKANYLSQALQAGTVWVNCYDVFGAQSPFGGYKMSGSGRELGEYGLQAYTEVKTVTVKVPQKNS
# modifications: thionitrate adduct on Cys-302 (GTN-soaked crystal)
# B2: Human aldehyde dehydrogenase-2 (ALDH2) triple mutant E268Q/C301S/C303S (enzyme)
# chain: SAAATQAVPAPNQQPEVFCNQIFINNEWHDAVSRKTFPTVNPSTGEVICQVAEGDKEDVDKAVKAARAAFQLGSPWRRMDASHRGRLLNRLADLIERDRTYLAALETLDNGKPYVISYLVDLDMVLKCLRYYAGWADKYHGKTIPIDGDFFSYTRHEPVGVCGQIIPWNFPLLMQAWKLGPALATGNVVVMKVAEQTPLTALYVANLIKEAGFPPGVVNIVPGFGPTAGAAIASHEDVDKVAFTGSTEIGRVIQVAAGSSNLKRVTLQLGGKSPNIIMSDADMDWAVEQAHFALFFNQGQSCSAGSRTFVQEDIYDEFVERSVARAKSRVVGNPFDSKTEQGPQVDETQFKKILGYINTGKQEGAKLLCGGGIAADRGYFIQPTVFGDVQDGMTIAKEEIFGPVMQILKFKTIEEVVGRANNSTYGLAAAVFTKDLDKANYLSQALQAGTVWVNCYDVFGAQSPFGGYKMSGSGRELGEYGLQAYTEVKTVTVKVPQKNS
# Biological target: the molecule itself
# Assay: crystal structure
row,Protein,stoichiometry N
1,B1,4
2,B2,4
